Source: ChEMBL document CHEMBL3526099, “Metabolism of triethylenetetramine and 1,12-diamino-3,6,9-triazadodecane by the spermidine/spermine-N(1)-acetyltransferase and thialysine acetyltransferase” (Drug Metab Dispos, 2013)

Substrate: NCCNCCNCCN
Test: not read

B1: Thialysine N-epsilon-acetyltransferase (Homo sapiens) (protein)
chain: MASVRIREAKEGDCGDILRLIRELAEFEKLSDQVKISEEALRADGFGDNPFYHCLVAEILPAPGKLLGPCVVGYGIYYFIYSTWKGRTIYLEDIYVMPEYRGQGIGSKIIKKVAEVALDKGCSQFRLAVLDWNQRAMDLYKALGAQDLTEAEGWHFFCFQGEATRKLAGK
Q: For B1, which Km is on record?
A: Its Km is 2500 µM.

Q: What about the Vmax of the same protein?
A: Its Vmax is 3.96 µmol/min/mg.
